Measured values from PMC8575367.
Read-outs that look alike come from different tables or passages of the source.

Columns and labels:
Assay in all cases: fluorescence anisotropy
[1] = target: T1, CPSF30-5F (five CCCH domains) (Bos taurus, UniProt O19137 33-170)
[2] = target: T1, CPSF30-5F (five CCCH domains); remark: listed apart in the source
[3] = target: T1, CPSF30-5F (five CCCH domains); remark: listed apart in the source
[4] = target: T1, CPSF30-5F (five CCCH domains); remark: listed apart in the source
[5] = target: T1, CPSF30-5F (five CCCH domains); remark: listed apart in the source
[6] = target: T1, CPSF30-5F (five CCCH domains); remark: listed apart in the source
[7] = target: T1, CPSF30-5F (five CCCH domains); remark: listed apart in the source
[8] = target: T1, CPSF30-5F (five CCCH domains); remark: listed apart in the source
[9] = target: T1, CPSF30-5F (five CCCH domains); remark: listed apart in the source
[10] = target: CPSF30-FL (five CCCH + CCHC zinc knuckle) (Bos taurus, UniProt O19137 1-243)
Sequence of CPSF30-FL (five CCCH + CCHC zinc knuckle) (O19137 whole entry, the tested form may be a part): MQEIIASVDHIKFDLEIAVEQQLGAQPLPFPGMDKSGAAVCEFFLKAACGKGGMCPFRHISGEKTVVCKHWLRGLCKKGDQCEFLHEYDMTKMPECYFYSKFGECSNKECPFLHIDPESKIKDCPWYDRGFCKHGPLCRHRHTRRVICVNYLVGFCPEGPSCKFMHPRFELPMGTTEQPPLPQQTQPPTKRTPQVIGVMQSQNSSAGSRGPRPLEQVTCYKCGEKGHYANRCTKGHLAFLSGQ

[11] = target: T1, CPSF30-5F (five CCCH domains); remark: listed apart in the source

T1 sequence (O19137 33-170): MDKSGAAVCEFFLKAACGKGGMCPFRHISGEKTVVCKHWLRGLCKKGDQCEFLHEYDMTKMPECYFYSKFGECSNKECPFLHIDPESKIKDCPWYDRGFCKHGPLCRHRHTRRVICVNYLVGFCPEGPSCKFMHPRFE

UCUCACUUUAAUAGUAAAAAUCAUGCUUAU (ssRNA) [P2AtoG]
apparent K (half saturation) [1]: 376 ± 12 nM

UCUCACUUUAAUAUUAAAAAUCAUGCUUAU (ssRNA) [P2AtoU]
apparent K (half saturation) [2]: 207 ± 0.6 nM

UCUCACUUUAAAAAUAAAAAACAUGCUUAU (ssRNA) [Most freq fl (AAA flanks)]
apparent K (half saturation) [3]: 226 ± 1.6 nM

AUUAUUUAUUUAUUUA (ssRNA) [ARE-16]
apparent K (half saturation) [4]: 1000 ± 82 nM

UCUCACUUUUCGAAUAAAUCGCAUGCUUAU (ssRNA) [Least freq fl (UCG flanks)]
apparent K (half saturation) [5]: 309 ± 25 nM

UCUCACUUUAAUAAUAACAAUCAUGCUUAU (ssRNA) [P6AtoC]
apparent K (half saturation) [1]: 309 ± 26 nM

UUAUUAUUUAUUUAUUUA (ssRNA) [ARE-18]
apparent K (half saturation) [6]: 671 ± 49 nM

UCUCACUUUAAUAAUAAGAAUCAUGCUUAU (ssRNA) [ATHA (α-thalassemia)]
apparent K (half saturation) [3]: 135 ± 6.3 nM

UUUAUUAUUUAUUUAUUAUUUAUUUAUUUA (ssRNA) [ARE-30]
apparent K (half saturation) [7]: 163 ± 10 nM

UCUCACUUUAAUAUUAAGAAUCAUGCUUAU (ssRNA) [FABRY]
binding result [8]: no binding

AUUUAUUUAUUAUUUAUUUAUUUA (ssRNA) [ARE-24]
apparent K (half saturation) [9]: 265 ± 31 nM

CACUUUAAUAAUAAAAAUCAUGCU (ssRNA) [α-syn24 (labeled)]
binding result [10]: binds

GUGAUUAUUUAUUAUUUAUUUAUUAUUUAUUUAUUUAG (ssRNA) [ARE-38]
apparent K (half saturation) [11]: 141 ± 5 nM

UCUCACUUUAAUAAUAGAAAUCAUGCUUAU (ssRNA) [LUPUS]
binding result [8]: no binding

UCUCACUUUAAUAAUCAAAAUCAUGCUUAU (ssRNA) [P4AtoC]
apparent K (half saturation) [1]: 335 ± 38 nM

UCUCACUUUAAUAAUGAAAAUCAUGCUUAU (ssRNA) [IPEX]
binding result [8]: no binding

UCUCACUUUAAUAACAAAAAUCAUGCUUAU (ssRNA) [BTHA (β-thalassemia)]
apparent K (half saturation) [6]: 148 ± 9 nM

UUUAUUAUUUAUUUAUUUAG (ssRNA) [ARE-20]
apparent K (half saturation) [6]: 499 ± 37 nM

UCUCACUUUAAUAAUACAAAUCAUGCUUAU (ssRNA) [P5AtoC]
apparent K (half saturation) [2]: 278 ± 29 nM
